The source of these data is patent US20040053383A1, “Crystals of cytochrome P450 2C9, structures thereof and their use” (ASTEX TECHNOLOGY LTD., priority 2001, published 2004).

The test system of data set [1] is P450 2C9. Description: Functionality assay with methoxy-4-(trifluoromethyl)-coumarin as fluorescent substrate (Examples 6 and 8). Type of data set: biochemical, human. Particulars: 140 μM methoxy-4-(trifluoromethyl)-coumarin, 37° C. How it is done:
Activity assays on P450 2C9 were performed in a 96-well plate assay format with a Fluoroscan Ascent FL Instruments (Labsystem), using the methoxy-4-(trifluoromethyl)-coumarin as a fluorescent substrate.
Fifteen pmoles of P450 were reconstituted with 0.1 unit of purified human oxidoreductase, in presence of 140 μM of substrate methoxy-4-(trifluoromethyl)-coumarin, a NADPH regenerating system that includes 0.15 mM NADP^+, 0.38 mM Glucose-6-phosphate and 2.9 unit/ml glucose-6-phosphate dehydrogenase in 170 μl final volume of 25 mM KPi, pH 7.4, 0.38 mM MgCl2 Incubations were performed at 37° C. for several minutes and 7-hydroxy-4-(trifluoromethyl)-coumarin was used as metabolite standard to determinate the metabolic rate. The excitation and emission wavelengths used were respectively 409 and 530 nm.
Fifteen pmoles of P450 were reconstituted with 0.1 unit of purified human oxidoreductase, in presence of 140 μM of substrate methoxy-4-(trifluoromethyl)-coumarin, a NADPH regenerating system that includes 0.15 mM NADP^+, 0.38 mM Glucose-6-phosphate and 2.9 unit/ml glucose-6-phosphate dehydrogenase in 170 μl final volume of 25 mM KPi, pH 7.4, 0.38 mM MgCl2. Incubations were performed at 37° C. for several minutes and 7-hydroxy-4-(trifluoromethyl)-coumarin was used as metabolite standard to determinate the metabolic rate. […]

For data set [2], the system named is P450 2C9. Type of data set: biochemical, human.
Experimental: Activity assays on P450 2C9 were performed in a 96-well plate assay format with a Fluoroscan Ascent FL Instruments (Labsystem), using the 7-methoxy-4-(trifluoromethyl)-coumarin as a fluorescent substrate.
The target in data set [3] is 2C19 (Homo sapiens, UniProt P33261). To be noted: cited from earlier work.

B1: Clone 1155: 2C9-FGloop with the substitution Lys206Glu (protein)
chain: MAKKTSSKGRPPGPTPLPVIGNILQIGIKDISKSLTNLSKVYGPVFTLYFGLKPIVVLHGYEAVKEALIDLGEEFSGRGIFPLAERANRGFGIVFSNGKKWKEIRRFSLMTLRNFGMGKRSIEDRVQEEARCLVEELRKTKASPCDPTFILGCAPCNVICSIIFHKRFDYKDQQFLNLMEKLNENIEILSSPWIQVYNNFPALLDYFPGTHNKLLKNVAFMKSYILEKVKEHQESMDMNNPQDFIDCFLMKMEKEKHNQPSEFTIESLENTAVDLFGAGTETTSTTLRYALLLLLKHPEVTAKVQEEIERVIGRNRSPCMQDRSHMPYTDAVVHEVQRYIDLLPTSLPHAVTCDIKFRNYLIPKGTTILISLTSVLHDNKEFPNPEMFDPHHFLDEGGNFKKSKYFMPFSAGKRICVGEALAGMELFLFLTSILQNFNLKSLVDPKNLDTTPVVNGFASVPPFYQLCFIPVHHHH
On to B1, for which the “activity with 2C9 substrate” value in data set [1] is reported as 0.083 pmol/min/pmol P450. Further, the 7-MFC in data set [2] turned out to be 0.23 min⁻¹.

B2: 2C19: human cytochrome P450 2C19, published data (protein, UniProt P33261 1-490, looked up)
Cytochrome P450 2C19: MDPFVVLVLCLSCLLLLSIWRQSSGRGKLPPGPTPLPVIGNILQIDIKDVSKSLTNLSKIYGPVFTLYFGLERMVVLHGYEVVKEALIDLGEEFSGRGHFPLAERANRGFGIVFSNGKRWKEIRRFSLMTLRNFGMGKRSIEDRVQEEARCLVEELRKTKASPCDPTFILGCAPCNVICSIIFQKRFDYKDQQFLNLMEKLNENIRIVSTPWIQICNNFPTIIDYFPGTHNKLLKNLAFMESDILEKVKEHQESMDINNPRDFIDCFLIKMEKEKQNQQSEFTIENLVITAADLLGAGTETTSTTLRYALLLLLKHPEVTAKVQEEIERVIGRNRSPCMQDRGHMPYTDAVVHEVQRYIDLIPTSLPHAVTCDVKFRNYLIPKGTTILTSLTSVLHDNKEFPNPEMFDPRHFLDEGGNFKKSNYFMPFSAGKRICVGEGLARMELFLFLTFILQNFNLKSLIDPKDLDTTPVVNGFASVPPFYQLCFIPV
Turning to B2, in data set [3], the 7-MFC is 2.98 min⁻¹.
